Assays:
[1] = target: T1, recombinant human PSMA (rhPSMA) (Homo sapiens, UniProt Q04609); assay: Naaladase assay (fluorescence-based Naaladase activity inhibition); format: biochemical; conditions: rhPSMA 0.4 μg/mL, substrate N-Acetyl-Asp-Glu 40 μM, 37° C. one hour
T1 construct: purchased Sino Biological
Experimental: Naaladase activity inhibition was determined using a fluorescence-based assay. Briefly, the solution containing the substrate N-Acetyl-Asp-Glu (Sigma-Aldrich) at 40 μM and the compound at concentrations from 0.15 nM to 1000 nM was mixed at equal volume with recombinant human PSMA (rhPSMA, Sino Biological) at 0.4 μg/mL, in assay buffer (50 mM HEPES, 100 mM NaCl, pH 7.5). The enzymatic reaction was proceeded by incubation at 37° C. for one hour and then stopped by heating at 95° C. for 5 minutes. A solution of 15 mM ortho-phthaldialdehyde (Sigma-Aldrich) was added to all vials and incubated for 10 min at ambient temperature. The reaction solutions were loaded onto a 96-well flat clear bottom black microplates (Corning) and read at excitation and emission wavelengths of 330 and 450 nm, respectively, using a microplate reader (Tecan). The data were analyzed by a one-site total binding regression algorithm of GraphPad Prism (GraphPad Software).

[2] = Tissue biodistribution in LnCAP tumor mouse model; parameters: species or system mice; conditions: male, SCID, in vivo, iv, total radioactivity
From the text: (§1) LnCAP and 22RV1 CDX xenograft tumor models were generated by inoculating 5×10^6 cells/site subcutaneously in male SCID or nude mice (Vital River), respectively. Animals were housed according to IACUC guidance and had accessed to food and water ad libitium. Animals were used for biodistribution study when the tumor dimensions reached around 0.2-0.3 cm^3. […] At each tome point, animals were sacrificed and tissues were collected, weighted, and subjected to radioactivity measurements using gamma counter. Radioactivity in the tissues was presented in % ID/g (percent of injected dose per gram).

[3] = Tissue biodistribution in 22Rv1 tumor mouse model; parameters: species or system mice; conditions: male, nude, in vivo, iv, total radioactivity
From the text: as §1

[4] = Tissue biodistribution: Salivary Gland

T1 sequence (Q04609 whole entry): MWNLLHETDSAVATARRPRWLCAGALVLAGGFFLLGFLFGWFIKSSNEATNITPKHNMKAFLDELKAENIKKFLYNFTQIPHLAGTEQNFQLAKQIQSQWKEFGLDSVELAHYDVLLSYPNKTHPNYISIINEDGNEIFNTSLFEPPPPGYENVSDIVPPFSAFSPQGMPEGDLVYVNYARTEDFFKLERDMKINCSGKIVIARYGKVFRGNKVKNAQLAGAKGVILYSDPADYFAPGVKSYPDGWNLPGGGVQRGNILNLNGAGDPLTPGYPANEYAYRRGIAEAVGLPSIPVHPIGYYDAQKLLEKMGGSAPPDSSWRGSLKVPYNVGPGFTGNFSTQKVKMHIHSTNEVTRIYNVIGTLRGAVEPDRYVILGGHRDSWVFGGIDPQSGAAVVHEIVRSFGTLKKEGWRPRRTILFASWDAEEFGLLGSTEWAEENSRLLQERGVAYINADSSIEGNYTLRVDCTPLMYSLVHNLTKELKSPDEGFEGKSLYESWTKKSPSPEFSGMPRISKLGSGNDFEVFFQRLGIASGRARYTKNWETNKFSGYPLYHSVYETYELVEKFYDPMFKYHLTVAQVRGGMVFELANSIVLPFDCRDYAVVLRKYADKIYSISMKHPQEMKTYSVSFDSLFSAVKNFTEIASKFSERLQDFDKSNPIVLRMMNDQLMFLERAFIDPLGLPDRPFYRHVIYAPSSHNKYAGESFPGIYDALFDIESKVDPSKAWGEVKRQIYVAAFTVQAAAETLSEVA

## NC(=O)CN1CCN(CC(=O)O)CCN(Cc2nnc(C34CCC(Nc5c(N[C@@H](Cc6c7ccccc7cc7ccccc67)C(=O)NCCCC[C@H](NC(=O)N[C@@H](CCCC(=O)O)C(=O)O)C(=O)O)c(=O)c5=O)(CC3)CC4)o2)CCN(CC(=O)O)CC1 [E20]
[1]
  IC50: 1.8 nM

## O=C(O)CCC[C@H](NC(=O)N[C@@H](CCCCNC(=O)[C@H](Cc1c2ccccc2cc2ccccc12)Nc1c(N[C@H]2CC[C@H](c3nnc(CN4CCN(CC(=O)O)CCN(CC(=O)O)CCN(CC(=O)O)CC4)o3)CC2)c(=O)c1=O)C(=O)O)C(=O)O [E11]
[1]
  IC50: 10 nM

## COc1nc(N[C@@H](Cc2ccc3ccccc3c2)C(=O)NCCCC[C@H](NC(=O)N[C@@H](CCC(=O)O)C(=O)O)C(=O)O)cc(NC23CCC(NC(=O)CN4CCN(CC(=O)O)CCN(CC(=O)O)CCN(CC(=O)O)CC4)(CC2)CC3)n1 [E25]
[1]
  IC50: 23.1 nM

## O=C(O)CC[C@H](NC(=O)N[C@@H](CCCCNC(=O)[C@H](Cc1ccc2ccccc2c1)Nc1c(Nc2ccc3c(c2)CCN(C(=O)CN2CCN(CC(=O)O)CCN(CC(=O)O)CCN(CC(=O)O)CC2)C3)c(=O)c1=O)C(=O)O)C(=O)O [E5]
[1]
  IC50: 3 nM

## O=C(O)CN1CCN(CC(=O)O)CCN(CC(=O)NC23CCC(Nc4nnc(N[C@@H](Cc5c6ccccc6cc6ccccc56)C(=O)NCCCC[C@H](NC(=O)N[C@@H](CNC(=O)C(=O)O)C(=O)O)C(=O)O)s4)(CC2)CC3)CCN(CC(=O)O)CC1 [E26]
[1]
  IC50: 9.5 nM

## O=C(O)CC[C@H](NC(=O)N[C@@H](CCCCNC(=O)[C@H](Cc1ccc2ccccc2c1)Nc1nc(O)nc(NC23CCC(NC(=O)CN4CCN(CC(=O)O)CCN(CC(=O)O)CCN(CC(=O)O)CC4)(CC2)CC3)n1)C(=O)O)C(=O)O [E27]
[1]
  IC50: 26.6 nM

## O=C(O)CC[C@H](NC(=O)N[C@@H](CCCCNC(=O)[C@H](Cc1ccc2ccccc2c1)Nc1cc(NC23CCC(NC(=O)CN4CCN(CC(=O)O)CCN(CC(=O)O)CCN(CC(=O)O)CC4)(CC2)CC3)ncn1)C(=O)O)C(=O)O [E24]
[1]
  IC50: 8.6 nM

## O=C(O)CC[C@H](NC(=O)N[C@@H](CCCCNC(=O)[C@H](Cc1ccc2ccccc2c1)Nc1c(NC23CCC(c4nnc(CN5CCN(CC(=O)O)CCN(CC(=O)O)CCN(CC(=O)O)CC5)o4)(CC2)CC3)c(=O)c1=O)C(=O)O)C(=O)O [E28]
[1]
  IC50: 2.1 nM

## NC(=O)CN1CCN(CC(=O)O)CCN(CC(=O)NC23CCC(Nc4c(N[C@@H](Cc5c6ccccc6cc6ccccc56)C(=O)NCCCC[C@H](NC(=O)N[C@@H](CNC(=O)C(=O)O)C(=O)O)C(=O)O)c(=O)c4=O)(CC2)CC3)CCN(CC(=O)O)CC1 [E16]
[1]
  IC50: 3.5 nM

## O=C(O)CC[C@H](NC(=O)N[C@@H](CCCCNC(=O)C(Cc1ccc2ccccc2c1)Nc1nnc(C23CCC(CNC(=O)CN4CCN(CC(=O)O)CCN(CC(=O)O)CCN(CC(=O)O)CC4)(CC2)CC3)o1)C(=O)O)C(=O)O (single isomer, unassigned) [E18]
[1]
  IC50: 3.7 nM

## O=C(O)CN1CCN(CC(=O)O)CCN(CC(=O)NC23CCC(Nc4c(N[C@@H](Cc5ccc6ccccc6c5)C(=O)NCCCC[C@H](NC(=O)N[C@@H](CNC(=O)C(=O)O)C(=O)O)C(=O)O)c(=O)c4=O)(CC2)CC3)CCN(CC(=O)O)CC1 [E21, (4S,8S,15S)-15-((3,4-dioxo-2-((4-(2-(4,7,10-tris(carboxymethyl)-1,4,7,10-tetraazacyclododecan-1-yl)acetamido)bicyclo[2.2.2]octan-1-yl)amino)cyclobut-1-en-1-yl)amino)-16-(naphthalen-2-yl)-1,6,14-trioxo-2,5,7,13-tetraazahexadecane-1,4,8-tricarboxylic acid]
[1]
  IC50: 1.5 nM

## O=C(O)CCC[C@H](NC(=O)N[C@@H](CCCCNC(=O)[C@H](Cc1c2ccccc2cc2ccccc12)Nc1c(NC23CCC(CNC(=O)CN4CCN(CC(=O)O)CCN(CC(=O)O)CCN(CC(=O)O)CC4)(CC2)CC3)c(=O)c1=O)C(=O)O)C(=O)O [E2, (S)-2-(3-((S)-5-((S)-3-(anthracen-9-yl)-2-((3,4-dioxo-2-((4-((2-(4,7,10-tris(carboxymethyl)-1,4,7,10-tetraazacyclododecan-1-yl)acetamido)methyl)bicyclo[2.2.2]octan-1-yl)amino)cyclobut-1-en-1-yl)amino)propanamido)-1-carboxypentyl)ureido)hexanedioic acid]
[1]
  IC50: 4 nM

## O=C(O)CC[C@H](NC(=O)N[C@@H](CCCCNC(=O)[C@H](Cc1ccc2ccccc2c1)NC(=O)[C@H]1CC[C@H](CNC(=O)CN2CCN(CC(=O)O)CCN(CC(=O)O)CCN(CC(=O)O)CC2)CC1)C(=O)O)C(=O)O [[^177Lu]Lu-PSMA-617, metal not drawn, reference compound]
[2]
  tissue uptake dose at 2 h: 8.53 ± 0.64 %ID
  tissue uptake dose at 6 h: 3.71 ± 1.76 %ID
  tissue uptake dose at 24 h: 4.44 ± 3.53 %ID
  tissue uptake dose at 72 h: 1.03 ± 0.18 %ID
  tissue uptake dose at 168 h: 0.73 ± 0.03 %ID
[2]; Tissue biodistribution: Blood
  tissue uptake at 2 h: 0.38 ± 0.05 %ID/g
  tissue uptake at 6 h: 0.08 ± 0.04 %ID/g
  tissue uptake at 24 h: 0.03 ± 0.01 %ID/g
[2]; Tissue biodistribution: Bone
  tissue uptake at 6 h: 0.2 ± 0.01 %ID/g
[2]; Tissue biodistribution: Gland
  tissue uptake at 2 h: 0.56 ± 0.04 %ID/g
  tissue uptake at 24 h: 0.07 %ID/g
  tissue uptake at 72 h: 0.06 %ID/g
  tissue uptake at 168 h: 0.06 ± 0.01 %ID/g
[2]; Tissue biodistribution: Heart
  tissue uptake at 24 h: 0.06 ± 0.02 %ID/g
  tissue uptake at 72 h: 0.06 ± 0.01 %ID/g
  tissue uptake at 168 h: 0.07 %ID/g
[2]; Tissue biodistribution: Kidney
  tissue uptake at 2 h: 66.9 ± 96.1 %ID/g
  tissue uptake at 6 h: 45.6 ± 37.1 %ID/g
  tissue uptake at 24 h: 3.25 ± 1.04 %ID/g
  tissue uptake at 72 h: 0.96 ± 0.33 %ID/g
[2]; Tissue biodistribution: Liver
  tissue uptake at 2 h: 0.21 ± 0.03 %ID/g
  tissue uptake at 6 h: 0.11 ± 0.04 %ID/g
  tissue uptake at 24 h: 0.07 ± 0.02 %ID/g
  tissue uptake at 72 h: 0.06 ± 0.01 %ID/g
  tissue uptake at 168 h: 0.04 ± 0.01 %ID/g
[2]; Tissue biodistribution: Lung
  tissue uptake at 2 h: 0.91 ± 0.06 %ID/g
  tissue uptake at 24 h: 0.09 ± 0.02 %ID/g
  tissue uptake at 72 h: 0.05 ± 0.01 %ID/g
  tissue uptake at 168 h: 0.05 ± 0.01 %ID/g
[2]; Tissue biodistribution: Muscle
  tissue uptake at 6 h: 0.08 ± 0.02 %ID/g
  tissue uptake at 168 h: 0.03 ± 0.02 %ID/g
[2]; Tissue biodistribution: Spleen
  tissue uptake at 2 h: 0.7 ± 0.21 %ID/g
  tissue uptake at 6 h: 0.36 ± 0.04 %ID/g
[2]; Tissue biodistribution: Tumor
  tissue uptake at 2 h: 30.2 ± 5.26 %ID/g
  tissue uptake at 6 h: 27.4 ± 7.91 %ID/g
  tissue uptake at 24 h: 19.8 ± 4.66 %ID/g
  tissue uptake at 72 h: 11.9 ± 1.2 %ID/g
  tissue uptake at 168 h: 4.74 ± 1.95 %ID/g
[3]
  tissue uptake dose at 2 h: 4.15 ± 0.06 %ID
  tissue uptake dose at 24 h: 1.21 ± 0.03 %ID
[3]; Tissue biodistribution: Blood
  tissue uptake at 2 h: 0.08 ± 0.03 %ID/g
  tissue uptake at 6 h: 0.03 ± 0.01 %ID/g
[3]; Tissue biodistribution: Bone
  tissue uptake at 24 h: 0.11 ± 0.03 %ID/g
[3]; Tissue biodistribution: Heart
  tissue uptake at 2 h: 0.1 ± 0.02 %ID/g
  tissue uptake at 6 h: 0.06 ± 0.01 %ID/g
  tissue uptake at 24 h: 0.05 ± 0.01 %ID/g
  tissue uptake at 72 h: 0.05 ± 0.01 %ID/g
  tissue uptake at 168 h: 0.06 ± 0.01 %ID/g
[3]; Tissue biodistribution: Kidney
  tissue uptake at 2 h: 53 ± 27.4 %ID/g
  tissue uptake at 6 h: 12.3 ± 6.38 %ID/g
  tissue uptake at 24 h: 1.35 ± 0.48 %ID/g
  tissue uptake at 168 h: 0.08 ± 0.03 %ID/g
[3]; Tissue biodistribution: Liver
  tissue uptake at 2 h: 0.09 ± 0.02 %ID/g
  tissue uptake at 6 h: 0.08 ± 0.02 %ID/g
  tissue uptake at 24 h: 0.05 ± 0.01 %ID/g
  tissue uptake at 72 h: 0.04 ± 0.01 %ID/g
  tissue uptake at 168 h: 0.03 ± 0.01 %ID/g
[3]; Tissue biodistribution: Lung
  tissue uptake at 2 h: 0.29 ± 0.05 %ID/g
  tissue uptake at 24 h: 0.06 ± 0.01 %ID/g
  tissue uptake at 72 h: 0.05 ± 0.01 %ID/g
  tissue uptake at 168 h: 0.05 %ID/g
[3]; Tissue biodistribution: Muscle
  tissue uptake at 2 h: 0.09 ± 0.03 %ID/g
  tissue uptake at 6 h: 0.05 ± 0.02 %ID/g
[3]; [4]
  tissue uptake at 6 h: 0.1 ± 0.02 %ID/g
  tissue uptake at 24 h: 0.06 ± 0.01 %ID/g
  tissue uptake at 72 h: 0.05 ± 0.02 %ID/g
  tissue uptake at 168 h: 0.05 ± 0.01 %ID/g
[3]; Tissue biodistribution: Spleen
  tissue uptake at 2 h: 0.78 ± 0.11 %ID/g
  tissue uptake at 72 h: 0.11 ± 0.04 %ID/g
  tissue uptake at 168 h: 0.09 ± 0.03 %ID/g
[3]; Tissue biodistribution: Tumor
  tissue uptake at 2 h: 11.4 ± 2.27 %ID/g
  tissue uptake at 6 h: 12.6 ± 3.23 %ID/g
  tissue uptake at 24 h: 9.84 ± 1.45 %ID/g
  tissue uptake at 72 h: 5.57 ± 0.6 %ID/g
  tissue uptake at 168 h: 0.96 ± 0.5 %ID/g

Source: patent US20260176254A1, “INHIBITORS OF PROSTATE SPECIFIC MEMBRANE ANTIGEN AND USE THEREOF” (SHANGHAI SINOTAU BIOTECH. CO., LTD, priority 2023, published 2026)
